From article doi:10.1101/595835, “An oligomeric state-dependent switch in FICD regulates AMPylation and deAMPylation of the chaperone BiP” (bioRxiv, 2019)

Assays:
[1] = target: T1, biotinylated AviTag-FICD(104-458)^H363A (human, UniProt Q9BVA6 104-458, H363A, biotin on the AviTag); assay: BLI; dimer dissociation: biotinylated AviTag-FICD(104-458)^H363A (3 nM) pre-incubated with FICD^H363A (300 nM), loaded on streptavidin biosensors; dissociation by infinite dilution into HKTx buffer ± nucleotide at 5 mM, 30 °C; mono-exponential fit; settings: both partners purified
T1 construct: human FICD (HYPE), aa 104-458; Expression, purification and biotinylation of this construct are not described; also called N-terminally biotinylated FICD^H363A; UK 2422; not shown: AviTag, N-terminal, kept
T1 sequence (looked up): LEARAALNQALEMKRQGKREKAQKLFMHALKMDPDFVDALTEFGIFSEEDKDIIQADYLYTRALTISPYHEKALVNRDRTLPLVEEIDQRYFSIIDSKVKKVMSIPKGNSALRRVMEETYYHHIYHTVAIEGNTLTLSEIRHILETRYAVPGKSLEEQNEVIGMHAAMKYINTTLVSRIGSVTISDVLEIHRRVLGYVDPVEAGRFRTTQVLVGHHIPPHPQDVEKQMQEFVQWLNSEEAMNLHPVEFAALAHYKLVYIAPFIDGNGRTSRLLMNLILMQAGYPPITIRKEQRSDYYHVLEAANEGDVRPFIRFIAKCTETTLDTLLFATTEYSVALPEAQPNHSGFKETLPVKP

[2] = target: T2, biotinylated AviTag-haBiP^V461F(19-654), AMPylated (Chinese hamster, UniProt G3I8R9 19-654, V461F, AMP on Thr518 (AMPylation); biotin on the AviTag); assay: BLI; biotinylated AMPylated or unmodified BiP immobilised on streptavidin biosensors; FICD His363Ala variants in solution at 250 nM; HKM plus 0.05% Triton X-100, 30 °C (Figure S2G); settings: both partners purified
T2 construct: Chinese hamster BiP (haBiP), aa 19-654; also called BiP-AMP; AMPylated BiP; not shown: GST, N-terminal, cleaved; AviTag, N-terminal, kept

[3] = target: T3, biotinylated AviTag-haBiP(28-635)^T229A-V461F (Chinese hamster, UniProt G3I8R9 28-635, T229A | V461F, biotin on the AviTag); assay: BLI; biotinylated BiP^T229A-V461F(28-635) immobilised on streptavidin biosensors and pre-saturated with ATP (2 mM); FICD His363Ala variants at 250 nM, without or with nucleotide (ATP 8 mM, ADP 2 mM); HKM plus 0.05% Triton X-100, 30 °C; settings: both partners purified
T3 construct: Chinese hamster BiP (haBiP), aa 28-635; the assay tells the nucleotide state; also called BiP^T229A-V461F:Apo; BiP:ATP; not shown: GST, N-terminal, cleaved; AviTag, N-terminal, kept

[4] = target: the molecule itself; assay: SEC; analytical SEC, SEC-3 HPLC column, HKMC buffer (50 mM HEPES-KOH pH 7.4, 150 mM KCl, 10 mM MgCl2, 1 mM CaCl2), 25 °C; FICD at 20 µM, or 0.2-50 µM after 16 h at 25 °C (Figure S1D-E); approximate Kd of dimer to monomers from elution peak times
[5] = target: the molecule itself; assay: crystal structure; sitting drop vapour diffusion, FICD at 9 mg/ml in 10 mM Tris-HCl pH 8.0, 150 mM NaCl, 1 mM TCEP, ± 10 mM MgATP

T2 sequence (G3I8R9 19-654 V461F): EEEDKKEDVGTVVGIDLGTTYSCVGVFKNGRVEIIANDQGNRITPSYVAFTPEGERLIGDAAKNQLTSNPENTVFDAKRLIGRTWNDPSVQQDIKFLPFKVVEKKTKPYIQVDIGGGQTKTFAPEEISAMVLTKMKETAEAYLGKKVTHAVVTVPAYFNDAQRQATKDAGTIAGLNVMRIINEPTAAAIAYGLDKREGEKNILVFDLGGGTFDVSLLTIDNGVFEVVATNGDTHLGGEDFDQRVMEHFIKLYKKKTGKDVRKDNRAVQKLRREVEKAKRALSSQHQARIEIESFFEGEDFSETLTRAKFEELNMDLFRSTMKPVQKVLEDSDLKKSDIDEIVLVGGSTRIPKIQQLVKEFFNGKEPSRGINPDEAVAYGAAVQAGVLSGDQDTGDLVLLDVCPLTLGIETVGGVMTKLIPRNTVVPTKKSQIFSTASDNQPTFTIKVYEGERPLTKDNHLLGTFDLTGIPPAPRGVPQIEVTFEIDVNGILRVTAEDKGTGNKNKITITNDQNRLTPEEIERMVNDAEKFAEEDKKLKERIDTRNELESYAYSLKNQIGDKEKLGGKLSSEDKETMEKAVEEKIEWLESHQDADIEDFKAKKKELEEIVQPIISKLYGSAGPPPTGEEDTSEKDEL
T3 sequence (G3I8R9 28-635 T229A/V461F): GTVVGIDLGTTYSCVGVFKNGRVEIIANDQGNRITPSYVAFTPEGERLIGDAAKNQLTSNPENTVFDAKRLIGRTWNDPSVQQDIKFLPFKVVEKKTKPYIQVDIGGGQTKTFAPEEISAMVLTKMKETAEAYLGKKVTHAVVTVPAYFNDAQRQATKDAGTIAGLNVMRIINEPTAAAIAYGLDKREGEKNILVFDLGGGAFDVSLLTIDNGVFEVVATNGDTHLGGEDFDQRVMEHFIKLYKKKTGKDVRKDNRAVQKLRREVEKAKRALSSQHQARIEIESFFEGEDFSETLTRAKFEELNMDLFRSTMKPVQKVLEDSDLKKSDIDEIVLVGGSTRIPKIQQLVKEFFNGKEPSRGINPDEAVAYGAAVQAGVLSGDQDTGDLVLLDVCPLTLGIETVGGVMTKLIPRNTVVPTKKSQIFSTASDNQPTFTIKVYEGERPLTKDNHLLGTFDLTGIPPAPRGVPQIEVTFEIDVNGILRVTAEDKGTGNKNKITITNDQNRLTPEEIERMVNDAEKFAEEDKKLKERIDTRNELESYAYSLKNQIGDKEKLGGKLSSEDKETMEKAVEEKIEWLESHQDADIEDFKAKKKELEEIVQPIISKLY

B1: FICD^H363A (aa 104-445) (domain or fragment, human, UniProt Q9BVA6 104-445, looked up)
chain: LEARAALNQALEMKRQGKREKAQKLFMHALKMDPDFVDALTEFGIFSEEDKDIIQADYLYTRALTISPYHEKALVNRDRTLPLVEEIDQRYFSIIDSKVKKVMSIPKGNSALRRVMEETYYHHIYHTVAIEGNTLTLSEIRHILETRYAVPGKSLEEQNEVIGMHAAMKYINTTLVSRIGSVTISDVLEIHRRVLGYVDPVEAGRFRTTQVLVGHHIPPHPQDVEKQMQEFVQWLNSEEAMNLHPVEFAALAHYKLVYIAPFIDGNGRTSRLLMNLILMQAGYPPITIRKEQRSDYYHVLEAANEGDVRPFIRFIAKCTETTLDTLLFATTEYSVALPEAQP
notes: human FICD (HYPE), aa 104-445; also called dFICD^H363A; source: E. coli T7 Express lysY/I^q, purified (Ni-NTA, on-column Ulp1 cleavage, anion exchange, SEC); not shown: His6, N-terminal, cleaved; Smt3, N-terminal, cleaved
For B1, the “fold increase in the dimer off rate with ATP (5 mM) against no nucleotide” value [1] was 3 fold, the binding result [2] was “binds” and the binding result [3] was “binds”.

B2: FICD^G299S (aa 104-445) (domain or fragment, human, UniProt Q9BVA6 104-445, looked up)
chain: LEARAALNQALEMKRQGKREKAQKLFMHALKMDPDFVDALTEFGIFSEEDKDIIQADYLYTRALTISPYHEKALVNRDRTLPLVEEIDQRYFSIIDSKVKKVMSIPKGNSALRRVMEETYYHHIYHTVAIEGNTLTLSEIRHILETRYAVPGKSLEEQNEVIGMHAAMKYINTTLVSRIGSVTISDVLEIHRRVLSYVDPVEAGRFRTTQVLVGHHIPPHPQDVEKQMQEFVQWLNSEEAMNLHPVEFAALAHYKLVYIHPFIDGNGRTSRLLMNLILMQAGYPPITIRKEQRSDYYHVLEAANEGDVRPFIRFIAKCTETTLDTLLFATTEYSVALPEAQP
notes: human FICD (HYPE), aa 104-445; Partially monomeric; also called Gly299Ser; source: E. coli T7 Express lysY/I^q, purified (Ni-NTA, on-column Ulp1 cleavage, anion exchange, SEC); not shown: His6, N-terminal, cleaved; Smt3, N-terminal, cleaved
For B2, the Kd [4] was 9.5 µM.

B3: FICD^K256A (aa 104-445) (domain or fragment, human, UniProt Q9BVA6 104-445, looked up)
chain: LEARAALNQALEMKRQGKREKAQKLFMHALKMDPDFVDALTEFGIFSEEDKDIIQADYLYTRALTISPYHEKALVNRDRTLPLVEEIDQRYFSIIDSKVKKVMSIPKGNSALRRVMEETYYHHIYHTVAIEGNTLTLSEIRHILETRYAVPGASLEEQNEVIGMHAAMKYINTTLVSRIGSVTISDVLEIHRRVLGYVDPVEAGRFRTTQVLVGHHIPPHPQDVEKQMQEFVQWLNSEEAMNLHPVEFAALAHYKLVYIHPFIDGNGRTSRLLMNLILMQAGYPPITIRKEQRSDYYHVLEAANEGDVRPFIRFIAKCTETTLDTLLFATTEYSVALPEAQP
notes: human FICD (HYPE), aa 104-445; also called dimeric dimer relay mutant FICD^K256A; source: E. coli T7 Express lysY/I^q, purified (Ni-NTA, on-column Ulp1 cleavage, anion exchange, SEC); not shown: His6, N-terminal, cleaved; Smt3, N-terminal, cleaved
B3: binds [5].

B4: FICD^E242A (aa 104-445) (domain or fragment, human, UniProt Q9BVA6 104-445, looked up)
chain: LEARAALNQALEMKRQGKREKAQKLFMHALKMDPDFVDALTEFGIFSEEDKDIIQADYLYTRALTISPYHEKALVNRDRTLPLVEEIDQRYFSIIDSKVKKVMSIPKGNSALRRVMEETYYHHIYHTVAIEGNTLTLSAIRHILETRYAVPGKSLEEQNEVIGMHAAMKYINTTLVSRIGSVTISDVLEIHRRVLGYVDPVEAGRFRTTQVLVGHHIPPHPQDVEKQMQEFVQWLNSEEAMNLHPVEFAALAHYKLVYIHPFIDGNGRTSRLLMNLILMQAGYPPITIRKEQRSDYYHVLEAANEGDVRPFIRFIAKCTETTLDTLLFATTEYSVALPEAQP
notes: human FICD (HYPE), aa 104-445; also called dimer relay mutant; source: E. coli T7 Express lysY/I^q, purified (Ni-NTA, on-column Ulp1 cleavage, anion exchange, SEC); not shown: His6, N-terminal, cleaved; Smt3, N-terminal, cleaved
With B4 the Kd [4] was < 0.4 µM.

B5: FICD^C421S (aa 104-445) (domain or fragment, human, UniProt Q9BVA6 104-445, looked up)
chain: LEARAALNQALEMKRQGKREKAQKLFMHALKMDPDFVDALTEFGIFSEEDKDIIQADYLYTRALTISPYHEKALVNRDRTLPLVEEIDQRYFSIIDSKVKKVMSIPKGNSALRRVMEETYYHHIYHTVAIEGNTLTLSEIRHILETRYAVPGKSLEEQNEVIGMHAAMKYINTTLVSRIGSVTISDVLEIHRRVLGYVDPVEAGRFRTTQVLVGHHIPPHPQDVEKQMQEFVQWLNSEEAMNLHPVEFAALAHYKLVYIHPFIDGNGRTSRLLMNLILMQAGYPPITIRKEQRSDYYHVLEAANEGDVRPFIRFIAKSTETTLDTLLFATTEYSVALPEAQP
notes: human FICD (HYPE), aa 104-445; also called cysteine-free FICD^C421S; UK 2161; source: E. coli, purified by the protocol of the disulphide-linked dimers (Ni-NTA, oxidised glutathione, anion exchange, SEC); not shown: His6, N-terminal, cleaved; Smt3, N-terminal, cleaved
B5: binds [4].
